According to patent US20210290602A1:

Biological target: SNAP-25 (endogenous, human induced neurons) (human) (UniProt P60880)
Assay: cell-based or functional assay

SNAP-25 (endogenous, human induced neurons) (human), sequence (P60880 whole entry): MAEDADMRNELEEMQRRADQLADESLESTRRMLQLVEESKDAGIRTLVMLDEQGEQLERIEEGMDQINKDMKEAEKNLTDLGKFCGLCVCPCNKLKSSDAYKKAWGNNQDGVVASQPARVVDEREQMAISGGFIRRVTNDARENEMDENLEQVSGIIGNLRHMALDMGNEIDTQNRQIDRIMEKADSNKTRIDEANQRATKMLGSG

## endogenous CSPα of ANCL patient-derived induced neurons (iNs), which co-express the CSPα^WT and CSPα^L116Δ alleles (from UniProt Q9H3Z4 1-198; Q9H3Z4 1-198)
  SNAP-25 degradation half-life, cycloheximide chase in iNs: 12.5 h
  SNAP-25 half-life after L1 or Dfx treatment against control, cycloheximide chase in ANCL iNs: 2 fold
